Laboratory results from patent publication US7101851 (dated 2006).
Bridges are numbered along the chain shown (N, C = ends). Where no end group is shown, it is not given here. [ ]: non-standard residue; d: D form. The star is where a group is joined. Biotin = O=C1N[C@H]2[C@H](CS[C@H]2CCCCC(=O)*)N1; Oic = O=C(O)[C@@H]1C[C@@H]2CCCC[C@@H]2N1; 2Nal = N[C@@H](Cc1ccc2ccccc2c1)C(=O)O; Hyp = O=C(O)[C@@H]1C[C@@H](O)CN1; Pip = O=C(O)[C@@H]1CCCCN1; NMeA = CN[C@@H](C)C(=O)O; Ava = NCCCCC(=O)O; Sar = CNCC(=O)O

T1: alpha subunit of the human FcεRI receptor expressed on Chinese hamster ovary cells (human, UniProt P12319 26-257)
T1 construct: whole, on cells; also called CHO FcεRI+ cells
T1 sequence (looked up): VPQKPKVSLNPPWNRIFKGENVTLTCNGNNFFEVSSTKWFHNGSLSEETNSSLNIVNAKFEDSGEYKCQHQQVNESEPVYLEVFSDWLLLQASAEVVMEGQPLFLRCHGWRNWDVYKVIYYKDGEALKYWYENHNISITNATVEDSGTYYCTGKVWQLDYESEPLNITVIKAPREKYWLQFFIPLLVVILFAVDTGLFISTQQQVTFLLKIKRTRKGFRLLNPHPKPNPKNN

T2: alpha subunit of the human FcεRI receptor (IgE high affinity receptor), expressed on Chinese hamster ovary … (human, UniProt P12319 26-257)
T2 construct: whole, on cells; also called CHO FcεRI+ cells; FcεRIα
T2 sequence (looked up): T1 sequence (looked up)

B1: IGE203 (peptide)
peptide: VQCPKFCYE[Ava]CPDVCYV-NH2
modifications: disulfide (positions not given here); not fully specified (bridges); printed as VQCPKFCYEavaCPDVCYV-nh2; also: dimer
B2: IGE202 (peptide)
peptide: VQCPDFCY[Ava]CPDVCYV-NH2
modifications: disulfide (positions not given here); not fully specified (bridges); printed as VQCPDFCYavaCPDVCYV-nh2
B3: IGE200 (peptide)
peptide: VQCPKFCY[Ava]LCPDVCYV-NH2
modifications: disulfide (positions not given here); not fully specified (bridges); printed as VQCPKFCYavaLCPDVCYV-nh2
B4: IGE201 (peptide)
peptide: VQCPDFCY[Ava]LCPDQCYV-NH2
modifications: disulfide (positions not given here); not fully specified (bridges); printed as VQCPDFCYavaLCPDQCYV-nh2

Assays:
[1] = molecular target: T1, alpha subunit of the human FcεRI …; test: inhibition of 125I-IgE binding to CHO cells expressing human FcεRI alpha subunit
Description: To determine the ability of peptides to inhibit IgE binding to FcεRI, a cell-based binding assay was used with radiolabeled IgE. Chinese hamster ovary cells expressing the alpha subunit of the human FcεRI receptor were cultured overnight in Falcon 96 well microtiter plates at a concentration of 5 ×10^4 cells per well. The following day the cells were rinsed three times with PBS and then once with F12/DMEM. Peptide stocks were reconstituted in 100 mM Hepes buffered water, pH 7.2, at a concentration of 5 mg/mL. Working concentrations of the peptide were diluted in assay buffer (see below). 75 uL of a desired concentration of peptide was added to the top row of a separate 96 well microtiter plate and serially diluted 1:3 in 50 uL of the assay buffer (F12/DMEM, 1% BSA, 0.05% NaN_3 and 0.025 mM Hepes pH 7.2). Starting concentrations ranged from 50–500 uM. Next, 50 uL of the diluted peptide was transferred to the 96 microtiter well plate containing a monolayer of CHO FcεRI+ cells. […] Cells were […]

[2] = molecular target: T2, alpha subunit of the human FcεRI …; test: inhibition of 125I-IgE binding to CHO cells expressing human FcεRI alpha; competitor IgE
How it was run: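 CHO cells expressing human FcεRI alpha were plated at 5 × 10^4 cells per well overnight, then given peptides serially diluted 1:3 from 50–500 uM starting concentrations in F12/DMEM with 1% BSA, 0.05% NaN3 and Hepes pH 7.2. Inhibition of 125I-IgE binding was measured.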

Binder | IC50 [1] | IC50 [2]
NLPRCTEGPWGWVCM (disulfide 5-14 (inferred), synthetic) [IGE062] | 1 µM | –
Ac-NLPRCTEG[Sar]WGWVCM (disulfide 5-14 (inferred), synthetic) [IGE097] | 84 µM | –
NLPRCTEGPWGWVC-NH2 (disulfide 5-14 (inferred), synthetic) [IGE091] | 12.8 µM | –
Ac-EIQECTEGPWGWVCM-NH2 (disulfide 5-14 (inferred), synthetic) [IGE090] | 7.6 µM | –
B1 | – | 12.9 µM
Ac-NLPRCTEG[Hyp]WGWVCM (disulfide 5-14 (inferred), synthetic) [IGE101] | 580 µM | –
B2 | – | 132 µM
Ac-NLPRCTEG[Sar]WGWVCM-NH2 (disulfide 5-14, synthetic) [IGE087] | 136 µM | –
Ac-NLPRCTEGP[2Nal]GWVCM (disulfide 5-14 (inferred), synthetic) [IGE103] | 1.2 µM | –
Ac-NLPRCTEG[Pip]WGWVCM (disulfide 5-14 (inferred), synthetic) [IGE095] | 23 µM | –
Ac-NLPRCTEGPWGWVCMAAD-NH2 (disulfide 5-14 (inferred), synthetic) [IGE042] | 1.5 µM | –
Ac-NLPRCTEGPKGWVCMADD-NH2 (disulfide 5-14 (inferred), synthetic) [IGE032] | 10.8 µM | –
Ac-NLPRCTEGPNGWVCMAAD-NH2 (disulfide 5-14 (inferred), synthetic) [IGE050] | 19.4 µM | –
NLPRCTEGPNGWVCMAAD-NH2 (disulfide 5-14 (inferred), synthetic) [IGE051] | 23.7 µM | –
Ac-NLPRCTAGPWGWVCMAAD-NH2 (disulfide 5-14 (inferred), synthetic) [IGE059] | 10.5 µM | –
Ac-NLPRCTEGPWGWVCMADD-NH2 (disulfide 5-14 (inferred), synthetic) [IGE031] | 1.1 µM | –
NLPRCTEGPWGWVCMAY (disulfide 5-14 (inferred), synthetic) [IGE076] | 2 µM | –
Ac-NLPRCTEG[Oic]WGWVCM (disulfide 5-14 (inferred), synthetic) [IGE100] | 364 µM | –
LPRCTEGPWGWVCM-NH2 (disulfide 4-13 (inferred), synthetic) [IGE068] | 3.3 µM | –
Ac-CTEGPWGWFCI-NH2 (disulfide 1-10 (inferred), synthetic) [IGE046] | 549 µM | –
CLEGPWGWFCI-NH2 (disulfide 1-10 (inferred), synthetic) [IGE045] | 300 µM | –
Ac-CLEGPWGWFCI-NH2 (disulfide 1-10 (inferred), synthetic) [IGE044] | 194 µM | –
Ac-CLEGPWGWVCI-NH2 (disulfide 1-10 (inferred), synthetic) [IGE080] | 410 µM | –

Binder | IC50 [1] | IC50 [2]
Ac-NLPRCTEGPWGWVCM-NH2 (disulfide 5-14 (inferred), synthetic) [IGE058] | 1.8 µM | –
CTEGPWGWFCI-NH2 (disulfide 1-10 (inferred), synthetic) [IGE047] | 741 µM | –
B3 | – | 11.7 µM
B4 | – | 14.6 µM
Ac-NLPRCTEGPWGWVCM (disulfide 5-14 (inferred), synthetic) [IGE063] | 1.8 µM | –
Ac-NLPRCTEG[NMeA]WGWVCM-NH2 (disulfide 5-14, synthetic) [IGE086] | 60 µM | –
Ac-NLPRCTEG[Pip]WGWVCM-NH2 (disulfide 5-14, synthetic) [IGE085] | 38.5 µM | –
PRCTEGPWGWVCM-NH2 (disulfide 3-12 (inferred), synthetic) [IGE069] | 34 µM | –
NLPRCTEGPWGWVCM-NH2 (disulfide 5-14 (inferred), synthetic) [IGE057] | 0.8 µM | –
Ac-NLPRCTEGPWGWACM (disulfide 5-14 (inferred), synthetic) [IGE209] | 14.3 µM | –
Ac-NLPRCAEGPWGWVCM (disulfide 5-14 (inferred), synthetic) [IGE208] | 6.85 µM | –
Ac-NLPRCTEGPWGLVCM (disulfide 5-14 (inferred), synthetic) [IGE109] | 10.6 µM | –
NLPRCTEGPWGAVCM (disulfide 5-14 (inferred), synthetic) [IGE073] | 118 µM | –
NLPRCTEGPWAWVCM (disulfide 5-14 (inferred), synthetic) [IGE074] | 43 µM | –
NLPRCTEGPAGWVCM (disulfide 5-14 (inferred), synthetic) [IGE072] | 81.5 µM | –
Ac-NLPRCTEGPVGWVCM (disulfide 5-14 (inferred), synthetic) [IGE106] | 84 µM | –
NLPRCTEGPWGWVCI (disulfide 5-14 (inferred), synthetic) [IGE075] | 1.4 µM | –
NLPRCTEGPWGWYCM (disulfide 5-14 (inferred), synthetic) [IGE077] | 126 µM | –
NLPRCTEAPWGWVCM (disulfide 5-14 (inferred), synthetic) [IGE079] | 462 µM | –
Biotin-NLPRCTEGPWGWVCM (disulfide 5-14 (inferred), synthetic) [IGE078] | 3.4 µM | –
Ac-NLPRCTEG[NMeA]WGWVCM (disulfide 5-14 (inferred), synthetic) [IGE096] | 44 µM | –
Ac-NLPRCTEGPWGWVC-NH2 (disulfide 5-14 (inferred), synthetic) [IGE092] | 20 µM | –
